Protein stability index data for 94 variants are collected here from the supplement of paper PMC10567573.

B1: BTBD1 (parent)
chain: IVGFGLYGSIHGPTDYQVNIQIIE
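Also: lentivirally expressed fusions sorted by FACS into six bins by GFP to DsRed ratio, PSI derived from sequencing read proportions per bin multiplied by bin number.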

The variants in the series derive from B1. The experiment in a line: protein stability index of a GFP-peptide fusion (GPS, HEK-293T) (PSI 1-6); higher = more stable. As to conditions: c terminus: a fixed tail appended.
Consider IVGMGLYGSIHGPTDYQVNIQIIE [F4M], for which the protein stability index was 2.47.
To IVGLGLYGSIHGPTDYQVNIQIIE [F4L] belongs 3.57; to IVGDGLYGSIHGPTDYQVNIQIIE [F4D], 2.64.
With IVGIGLYGSIHGPTDYQVNIQIIE [F4I], the protein stability index came to 3.05.
The result for IVGGGLYGSIHGPTDYQVNIQIIE [F4G] reads 1.56; that for IVGFGLYGSIHGPTDYQNNIQIIE [V18N], 1.8; that for IVGFGLYGSIHGPTDYQKNIQIIE [V18K], 2.42.
Consider IVGFGLYGSIHGPTDYQTNIQIIE [V18T], for which the protein stability index came to 4.
The result for IVGFGLYGSIHGPYDYQVNIQIIE [T14Y] reads 3.03.
Take IVGFGLYGSIHGPPDYQVNIQIIE [T14P]: the protein stability index is 3.3.
The result for IVGFGLYGSIHGPNDYQVNIQIIE [T14N] reads 2.95.
To IVGFGLYGSIVGPTDYQVNIQIIE [H11V] belongs 3.12.
As for IVGFGLYGSIHGPTDYQVNIQWIE [I22W], the protein stability index stood at 3.36.
Take IVGFGLYGSIHGPTDYQVNIQQIE [I22Q]: the protein stability index is 3.
For IVGFGLYGSIHGPTDYQVNIQCIE [I22C], the protein stability index came to 4.32.
Take IVGFGLYGSIHGPTDYQVNIQYIE [I22Y]: the protein stability index was determined as 2.48.
On to IVGFGLYGSIHGPTDYQVIIQIIE [N19I], for which the protein stability index came out at 3.1.
As for IVGFGLYGSIHGPTDYQVHIQIIE [N19H], the protein stability index worked out at 1.59.
The result for IVGFGLYGSIHGPTDYQVTIQIIE [N19T] reads 3.11; that for IVGFGLYGSIHGPTDYQVGIQIIE [N19G], 1.59; that for IVGFGLYGSIHGQTDYQVNIQIIE [P13Q], 3.17.
Take IVGFGLYGSIHGATDYQVNIQIIE [P13A]: the protein stability index worked out at 2.3.
For IVGFGLYGSIHGWTDYQVNIQIIE [P13W], the protein stability index stood at 2.76.
For the variant IVGFGLYGSIHGMTDYQVNIQIIE [P13M], the protein stability index came out at 2.48.
The result for IVGFGLYGSIHGPTDMQVNIQIIE [Y16M] reads 2.38; that for IVGFGLYGSIHGPTDLQVNIQIIE [Y16L], 2.09.
For IVGFGLYGSIHGPTDCQVNIQIIE [Y16C], the protein stability index worked out at 3.51.
To IVGFGLYGSIHGPTDDQVNIQIIE [Y16D] belongs 2.5; to IVGFGLYGSIHGPTDIQVNIQIIE [Y16I], 3.59.
The result for IVGFGLYGSIHGPTDNQVNIQIIE [Y16N] reads 2.41; that for IVGFGLYGSIHGPTDYQVNIQIIP [E24P], 2.89; that for IVGFGLYGSIHGPTDYQVNIQIIT [E24T], 3.78.
To IVGFGLYGSIHGPTDYQVNIQIIK [E24K] belongs 2.36; to IVGFGLYGSIHGPTDYQVNIYIIE [Q21Y], 3.06; to IVGFGLYGSIHGPTDYQVNIGIIE [Q21G], 2.44.
In the case of IVGFGLYGSIHGPTDYQVNIRIIE [Q21R], the protein stability index is 2.53.
With IVGFGLYGSIHGPTDYQVNIQILE [I23L], the protein stability index is 2.96.
On to IVGFGLYGSIHGPTDYQVNIQIHE [I23H], for which the protein stability index is 4.05.
The result for IVGFGLYGSIHGPTDYQVNIQIPE [I23P] reads 2.21; that for IVGFGLYGSIHGPTDYQVNIQIWE [I23W], 1.57; that for IVGFGLYGSIHGPTDYQVNIQIVE [I23V], 2.82.
Regarding IVGFGLYGSIHGPTDYQVNIQIYE [I23Y], the protein stability index stood at 2.12.
With IVGFGLYGSIHGPTSYQVNIQIIE [D15S], the protein stability index came out at 3.04.
The result for IVGFGLYGSIHGPTYYQVNIQIIE [D15Y] reads 3.42; that for IVGFGLYGSIHGPTAYQVNIQIIE [D15A], 2.57; that for IVGFGLYGSIHGPTNYQVNIQIIE [D15N], 2.36.
To IVGFGLYGAIHGPTDYQVNIQIIE [S9A] belongs 1.82; to IVGFGLYGWIHGPTDYQVNIQIIE [S9W], 2.76; to IVGFGLYGYIHGPTDYQVNIQIIE [S9Y], 2.58.
Consider IVGFGLYGQIHGPTDYQVNIQIIE [S9Q], for which the protein stability index is 2.56.
To IVGFGLYGEIHGPTDYQVNIQIIE [S9E] belongs 2.74; to IVGFGLYGIIHGPTDYQVNIQIIE [S9I], 2.88; to IVGFGLYGTIHGPTDYQVNIQIIE [S9T], 1.99.
The result for IVGFGLYGSIHYPTDYQVNIQIIE [G12Y] reads 1.89.
Take IVGFGLYGSIHWPTDYQVNIQIIE [G12W]: the protein stability index stood at 2.56.
Regarding IVGFGLYGSIHKPTDYQVNIQIIE [G12K], the protein stability index was 4.19.
To IVGFGLYGSIHSPTDYQVNIQIIE [G12S] belongs 3.04; to IKGFGLYGSIHGPTDYQVNIQIIE [V2K], 2.02; to IIGFGLYGSIHGPTDYQVNIQIIE [V2I], 2.6.
The result for IDGFGLYGSIHGPTDYQVNIQIIE [V2D] reads 2.79; that for IQGFGLYGSIHGPTDYQVNIQIIE [V2Q], 4.24.
The result for IVGFGLYGSIHGPTDYSVNIQIIE [Q17S] reads 2.31; that for IVGFGLYGSIHGPTDYEVNIQIIE [Q17E], 2.95; that for IVGFGLYGSIHGPTDYGVNIQIIE [Q17G], 4.09.
Take IVGFGLYGSIHGPTDYVVNIQIIE [Q17V]: the protein stability index was 2.48.
To IVGFGLYGSIHGPTDYRVNIQIIE [Q17R] belongs 3.14.
In the case of IVGFGLYGSIHGPTDYNVNIQIIE [Q17N], the protein stability index was 2.98.
To IVGFGLSGSIHGPTDYQVNIQIIE [Y7S] belongs 2.47; to IVGFGLKGSIHGPTDYQVNIQIIE [Y7K], 3.4.
The result for IVGFGLYGSIHGPTDYQVNAQIIE [I20A] reads 2.29; that for IVGFGLYGSIHGPTDYQVNMQIIE [I20M], 4.04.
For the variant IVGFGLYGSIHGPTDYQVNDQIIE [I20D], the protein stability index was found to be 2.31.
The result for IVGFGLYGSIHGPTDYQVNLQIIE [I20L] reads 3.4; that for IVGFGLYGSEHGPTDYQVNIQIIE [I10E], 2.58; that for IVGFGLYGSWHGPTDYQVNIQIIE [I10W], 1.64.
Consider IVGFGLYGSPHGPTDYQVNIQIIE [I10P], for which the protein stability index was found to be 2.78.
With IVGFGLYGSQHGPTDYQVNIQIIE [I10Q], the protein stability index amounted to 3.45.
For IVGFGLYGSTHGPTDYQVNIQIIE [I10T], the protein stability index was found to be 3.32.
The result for IVGFGLYQSIHGPTDYQVNIQIIE [G8Q] reads 3.42; that for IVGFGLYYSIHGPTDYQVNIQIIE [G8Y], 2.35; that for IVGFPLYGSIHGPTDYQVNIQIIE [G5P], 2.36.
Regarding IVGFKLYGSIHGPTDYQVNIQIIE [G5K], the protein stability index was 2.34.
The result for IVGFWLYGSIHGPTDYQVNIQIIE [G5W] reads 2.79; that for IVGFSLYGSIHGPTDYQVNIQIIE [G5S], 1.62; that for IVGFNLYGSIHGPTDYQVNIQIIE [G5N], 3.75.
Consider IVGFGHYGSIHGPTDYQVNIQIIE [L6H], for which the protein stability index is 3.36.
As to IVGFGRYGSIHGPTDYQVNIQIIE [L6R], the protein stability index amounted to 2.67.
As for IVGFGQYGSIHGPTDYQVNIQIIE [L6Q], the protein stability index amounted to 3.25.
To IVPFGLYGSIHGPTDYQVNIQIIE [G3P] belongs 2.64.
For IVEFGLYGSIHGPTDYQVNIQIIE [G3E], the protein stability index turned out to be 2.82.
The result for IVDFGLYGSIHGPTDYQVNIQIIE [G3D] reads 3.42; that for EVGFGLYGSIHGPTDYQVNIQIIE [I1E], 3.29.
The result for QVGFGLYGSIHGPTDYQVNIQIIE [I1Q] reads 3.04; that for SVGFGLYGSIHGPTDYQVNIQIIE [I1S], 1.77.
